Experimental data taken from patent US20260176603, “TYPE II CAS PROTEINS AND APPLICATIONS THEREOF” (Alia Therapeutics Srl, published 2026).

T1: BDLP Type II Cas (metagenomic)
T1 chain: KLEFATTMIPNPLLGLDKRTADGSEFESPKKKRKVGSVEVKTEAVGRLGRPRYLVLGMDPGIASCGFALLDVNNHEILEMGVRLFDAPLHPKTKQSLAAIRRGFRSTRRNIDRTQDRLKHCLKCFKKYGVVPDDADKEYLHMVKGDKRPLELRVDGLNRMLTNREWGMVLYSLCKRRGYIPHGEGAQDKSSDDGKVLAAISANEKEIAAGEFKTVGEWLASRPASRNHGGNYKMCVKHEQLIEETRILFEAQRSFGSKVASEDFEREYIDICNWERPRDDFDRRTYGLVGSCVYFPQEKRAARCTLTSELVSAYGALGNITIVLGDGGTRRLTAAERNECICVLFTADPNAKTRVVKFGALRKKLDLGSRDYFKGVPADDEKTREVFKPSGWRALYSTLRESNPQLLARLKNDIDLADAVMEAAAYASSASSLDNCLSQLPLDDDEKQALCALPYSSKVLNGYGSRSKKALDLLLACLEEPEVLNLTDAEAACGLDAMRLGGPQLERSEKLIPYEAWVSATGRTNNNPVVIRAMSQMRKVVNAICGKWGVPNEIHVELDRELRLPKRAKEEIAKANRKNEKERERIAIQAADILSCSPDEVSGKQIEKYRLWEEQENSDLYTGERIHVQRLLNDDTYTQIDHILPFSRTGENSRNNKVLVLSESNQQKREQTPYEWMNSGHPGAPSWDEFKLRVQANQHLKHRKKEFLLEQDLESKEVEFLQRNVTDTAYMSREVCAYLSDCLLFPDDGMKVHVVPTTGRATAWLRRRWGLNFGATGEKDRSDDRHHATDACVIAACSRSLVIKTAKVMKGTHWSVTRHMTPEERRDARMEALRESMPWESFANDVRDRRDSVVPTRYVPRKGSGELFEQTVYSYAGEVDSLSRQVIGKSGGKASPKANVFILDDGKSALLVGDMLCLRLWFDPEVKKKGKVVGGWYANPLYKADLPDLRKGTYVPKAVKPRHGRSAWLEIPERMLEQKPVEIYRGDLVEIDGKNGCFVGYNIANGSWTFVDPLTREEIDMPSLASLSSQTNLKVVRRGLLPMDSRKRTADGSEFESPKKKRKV

T2: EQSC Type II Cas (metagenomic)
T2 chain: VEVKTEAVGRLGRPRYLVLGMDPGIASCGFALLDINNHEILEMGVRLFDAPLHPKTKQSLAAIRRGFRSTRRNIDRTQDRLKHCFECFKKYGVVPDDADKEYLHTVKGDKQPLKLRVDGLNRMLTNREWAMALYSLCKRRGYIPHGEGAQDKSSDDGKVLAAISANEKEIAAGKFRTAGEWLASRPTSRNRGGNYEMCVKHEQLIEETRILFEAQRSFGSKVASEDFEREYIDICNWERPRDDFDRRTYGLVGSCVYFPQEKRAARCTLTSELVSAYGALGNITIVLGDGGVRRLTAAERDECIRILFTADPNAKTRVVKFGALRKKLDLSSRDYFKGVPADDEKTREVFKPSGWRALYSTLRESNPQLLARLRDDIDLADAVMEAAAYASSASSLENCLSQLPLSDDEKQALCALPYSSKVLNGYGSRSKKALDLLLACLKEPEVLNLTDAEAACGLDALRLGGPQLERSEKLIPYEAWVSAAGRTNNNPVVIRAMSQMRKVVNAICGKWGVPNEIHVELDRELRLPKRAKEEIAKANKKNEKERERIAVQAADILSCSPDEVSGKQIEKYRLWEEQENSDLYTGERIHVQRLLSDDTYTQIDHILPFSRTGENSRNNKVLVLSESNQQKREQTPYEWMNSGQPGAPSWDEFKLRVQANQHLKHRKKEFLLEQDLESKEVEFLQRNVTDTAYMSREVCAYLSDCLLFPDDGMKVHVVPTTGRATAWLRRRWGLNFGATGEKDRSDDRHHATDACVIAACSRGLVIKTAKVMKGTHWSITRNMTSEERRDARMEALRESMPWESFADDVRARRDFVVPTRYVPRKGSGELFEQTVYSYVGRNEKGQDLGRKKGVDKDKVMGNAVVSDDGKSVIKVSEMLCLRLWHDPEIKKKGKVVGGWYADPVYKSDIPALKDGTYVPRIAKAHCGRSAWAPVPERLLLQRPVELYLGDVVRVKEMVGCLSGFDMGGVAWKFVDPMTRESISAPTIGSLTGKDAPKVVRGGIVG

B1: gRNA-BDLP-EGFP-g2 ; EGFP target BDLP g2 (ssRNA ; dsDNA)
RNA: GGGGUAGCGGCUGAAGCACUGCAGUCUUGAGCUCGGAAACGAGACUCCAGACAAGGGGAGUCUACAACAGUAGGUUCACCCGUAGGGUUACCCCCGCGUCAUCCUCGGAAGGCGCGGGGCGAACUCUUUUUU
DNA 1: GTCGGGGTAGCGGCTGAAGCACTGCACGCCGTAGG
DNA 2: CCTACGGCGTGCAGTGCTTCAGCCGCTACCCCGAC
B2: gRNA-BDLP-EGFP-g3 ; EGFP target BDLP g3 (ssRNA ; dsDNA)
RNA: GUAGUUGCCGUCGUCCUUGAAGAAGUCUUGAGCUCGGAAACGAGACUCCAGACAAGGGGAGUCUACAACAGUAGGUUCACCCGUAGGGUUACCCCCGCGUCAUCCUCGGAAGGCGCGGGGCGAACUCUUUUUU
DNA 1: CTTGTAGTTGCCGTCGTCCTTGAAGAAGATGGTGCG
DNA 2: CGCACCATCTTCTTCAAGGACGACGGCAACTACAAG
B3: gRNA-BDLP-EGFP-g1 ; EGFP target BDLP g1 (ssRNA ; dsDNA)
RNA: GCCCAUCCUGGUCGAGCUGGACGGGUCUUGAGCUCGGAAACGAGACUCCAGACAAGGGGAGUCUACAACAGUAGGUUCACCCGUAGGGUUACCCCCGCGUCAUCCUCGGAAGGCGCGGGGCGAACUCUUUUUU
DNA 1: GGTGCCCATCCTGGTCGAGCTGGACGGCGACGTAAA
DNA 2: TTTACGTCGCCGTCCAGCTCGACCAGGATGGGCACC
B4: gRNA-EQSC-EGFP-g2 ; EGFP target EQSC g2 (ssRNA ; dsDNA)
RNA: UGCAGAUGAACUUCAGGGUCAGCGUCUUGAGCUCGGAAACGAGACUCCAGACAAGGGGAACCUACAACGGUAGGUUCACCCGUAGGGUUACCCCCGCGUCAUCUUCGGAAGGCGCGGGGCGAACUCUUUUUU
DNA 1: TGGTGCAGATGAACTTCAGGGTCAGCTTGCCGTAGGT
DNA 2: ACCTACGGCAAGCTGACCCTGAAGTTCATCTGCACCA
B5: gRNA-EQSC-EGFP-g1 ; EGFP target EQSC g1 (ssRNA ; dsDNA)
RNA: GCCCAUCCUGGUCGAGCUGGACGGUCUUGAGCUCGGAAACGAGACUCCAGACAAGGGGAACCUACAACGGUAGGUUCACCCGUAGGGUUACCCCCGCGUCAUCUUCGGAAGGCGCGGGGCGAACUCUUUUUU
DNA 1: GGTGCCCATCCTGGTCGAGCTGGACGGCGACGTAAAC
DNA 2: GTTTACGTCGCCGTCCAGCTCGACCAGGATGGGCACC
B6: gRNA-EQSC-EGFP-g3 ; EGFP target EQSC g3 (ssRNA ; dsDNA)
RNA: GCACGACUUCUUCAAGUCCGCCAGUCUUGAGCUCGGAAACGAGACUCCAGACAAGGGGAACCUACAACGGUAGGUUCACCCGUAGGGUUACCCCCGCGUCAUCUUCGGAAGGCGCGGGGCGAACUCUUUUUU
DNA 1: GCAGCACGACTTCTTCAAGTCCGCCATGCCCGAAGGC
DNA 2: GCCTTCGGGCATGGCGGACTTGAAGAAGTCGTGCTGC

Molecular target: T1, BDLP Type II Cas
Assay: cell_activity; PAM NNNNGT; U2OS-EGFP
Details: tags: N-terminal SV5 tag and NLS, C-terminal NLS

activity, > 90 % EGFP KO:
B1
B2
B3

Molecular target: T2, EQSC Type II Cas
Assay: cell_activity; PAM NNNNCNNA; U2OS-EGFP
Details: tags: N-terminal SV5 tag and NLS, C-terminal NLS

activity, > 90 % EGFP KO:
B4
B5
B6
